Source: article PMC8840716, “Functional Antagonism of WRI1 and TCP20 Modulates GH3.3 Expression to Maintain Auxin Homeostasis in Roots” (Plants, 2022)

Molecular target: T1, GST-AtWRI1 (Arabidopsis, UniProt Q6X5Y6 1-430)
T1 construct: Arabidopsis WRINKLED1 (AtWRI1), AT3G54320, full-length, sub-cloned into pET41a-GST; also called WRINKLED1; GST agarose-coupled AtWRI1; source: E. coli BL21 (DE3), purified
T1 sequence (looked up): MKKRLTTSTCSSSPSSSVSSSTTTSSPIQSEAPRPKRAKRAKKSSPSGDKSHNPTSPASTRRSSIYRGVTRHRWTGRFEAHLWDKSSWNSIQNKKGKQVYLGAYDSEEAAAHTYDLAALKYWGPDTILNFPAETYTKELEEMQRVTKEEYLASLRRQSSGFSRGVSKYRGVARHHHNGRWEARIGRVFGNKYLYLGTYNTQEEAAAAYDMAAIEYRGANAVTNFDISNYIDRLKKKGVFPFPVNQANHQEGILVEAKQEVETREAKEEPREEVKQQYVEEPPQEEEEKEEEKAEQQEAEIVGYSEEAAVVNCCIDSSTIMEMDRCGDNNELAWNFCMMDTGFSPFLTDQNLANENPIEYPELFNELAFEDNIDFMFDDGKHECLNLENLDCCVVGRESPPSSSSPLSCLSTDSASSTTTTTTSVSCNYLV
Assay: pull-down; purified His-TCP20 incubated with GST beads coupled with purified GST-AtWRI1; 20 mM Tris-HCl pH 7.4, 150 mM NaCl, 1 mM DTT, 0.1 mM EDTA, 0.1% IGEPAL CA-630, 4 °C overnight, 5 washes; immunoblot with anti-His antibody
Conditions: both partners purified

B1: His-TCP20 (natural protein)
chain: not shown
notes: Arabidopsis TCP20, AT3G27010, full-length, sub-cloned into pET41a-6xHis; also called His-tagged TCP20; source: E. coli BL21 (DE3), purified
B1: binds.
